Experimental findings from patent publication US20220162305A1 (IMCHECK THERAPEUTICS, published 2022) are described below.

For experiment [1], the target named is T1, human BTN2A1-CFP fusion protein expressed on HEK-293T BTN2 KO cells (human, UniProt Q7KYR7 29-527).
T1 construct: not shown: CFP tag; printed as 'CFP(Nter)-fusion' and as 'BTN2A1-CFP'
T1 sequence: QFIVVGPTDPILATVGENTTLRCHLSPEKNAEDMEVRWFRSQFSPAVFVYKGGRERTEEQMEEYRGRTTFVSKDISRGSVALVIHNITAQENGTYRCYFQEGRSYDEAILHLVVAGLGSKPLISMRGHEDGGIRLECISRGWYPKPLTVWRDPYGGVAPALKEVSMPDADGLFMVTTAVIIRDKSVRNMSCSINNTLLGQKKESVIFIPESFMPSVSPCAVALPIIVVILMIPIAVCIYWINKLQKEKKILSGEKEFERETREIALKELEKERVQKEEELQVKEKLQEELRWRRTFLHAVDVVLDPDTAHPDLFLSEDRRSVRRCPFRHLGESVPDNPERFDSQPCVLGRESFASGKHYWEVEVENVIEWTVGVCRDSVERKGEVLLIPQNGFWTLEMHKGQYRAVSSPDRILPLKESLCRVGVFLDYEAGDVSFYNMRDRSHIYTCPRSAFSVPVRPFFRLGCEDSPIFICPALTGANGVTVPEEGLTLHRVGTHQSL
The experiment in a line: flow cytometry, MFI on CFP+ HEK-293T BTN2 KO cells transfected with BTN2A1-CFP, 5 ng/mL to 75 µg/mL mAb.

Experiment [2] deals with T2, biotinylated recombinant human BTN2A2-Fc (R&D Systems) (human, UniProt Q8WVV5 33-265, limits assumed, biotinylated (sites not given)).
T2 construct: Bought soluble Fc fusion; also called rhBTN2A2-Fc; not shown: Fc part of the bought fusion protein
T2 sequence: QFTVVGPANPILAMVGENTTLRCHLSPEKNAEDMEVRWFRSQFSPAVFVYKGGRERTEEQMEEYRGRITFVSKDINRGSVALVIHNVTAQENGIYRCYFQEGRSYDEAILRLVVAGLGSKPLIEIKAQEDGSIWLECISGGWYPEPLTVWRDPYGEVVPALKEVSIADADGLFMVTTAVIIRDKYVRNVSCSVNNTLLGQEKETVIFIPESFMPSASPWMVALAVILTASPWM
The experiment in a line: BLI (Octet Red96), chimeric mAb on FAB2G sensors, biotinylated rhBTN2A2-Fc as analyte. For orientation: In BLI a coated tip is dipped into the sample, and binding shifts an interference pattern.

Experiment [3] has as its target T3, recombinant human BTN2A1-Fc fusion protein (GTP Technologies) (human, UniProt Q7KYR7 29-248, biotinylated with EZ-Link NHS-PEG4 biotin for the Octet affinity assay (sites not given)).
T3 construct: Bought soluble Fc fusion; Used biotinylated in Octet, unmodified in ELISA and cross-linking MS; also called rhBTN2A1-Fc; huBTN2A1-Fc; not shown: Fc part of the bought fusion protein
T3 sequence: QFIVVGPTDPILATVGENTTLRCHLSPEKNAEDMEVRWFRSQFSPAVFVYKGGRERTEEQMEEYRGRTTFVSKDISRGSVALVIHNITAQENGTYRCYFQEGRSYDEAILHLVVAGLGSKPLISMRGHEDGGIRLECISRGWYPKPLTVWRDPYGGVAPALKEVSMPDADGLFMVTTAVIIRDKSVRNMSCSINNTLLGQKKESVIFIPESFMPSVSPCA
The experiment in a line: ELISA, huBTN2A1-Fc coated at 5 µg/mL, mAb titrated, goat anti-mouse IgG HRP, absorbance at 405 nm.

Experiment [4] has as its target T3, recombinant human BTN2A1-Fc fusion …. The experiment in a line: BLI (Octet Red96), biotinylated rhBTN2A1-Fc on streptavidin sensors, chimeric mAb as analyte, 30 °C, 1:1 model.
Protocol: Affinity and binning experiments were performed on an Octet Red96 platform (Fortebio/PALL), system based on Bio-layer interferometry (BLI) technology. For affinity experiments, recombinant human (rh)BTN2A1-Fc (GTP) was biotinylated using EZ-Link™ NHS-PEG4 Biotinylation Kit according to manufacturer's instructions, and biotinylated rhBTN2A2-Fc was purchased from R&D Systems. […] For BTN2A2 affinity assays, chimeric anti-BTN2A antibodies were loaded into FAB2G sensors (anti human CH1; Fortebio) as described above, and biotinylated rhBTN2A2-Fc was used as analyte. In both cases, analytes remained in solution and their working concentrations were diluted in Kinetic Buffer 10× (ForteBio). […] All runs (including loading, equilibration, association/dipping of sensors into analyte, dissociation and regeneration) were performed at 30° C. with shaking 1000 rpm. Analysis was performed using a 1:1 or 2:1 Langmuir model (for BTN2A1 or BTN2A2, respectively) calculated by Octet software, which allowed a better fitting calculation.
The target in experiment [5] is T2, biotinylated recombinant human …. The experiment in a line: BLI (Octet Red96), chimeric mAb on FAB2G sensors, biotinylated rhBTN2A2-Fc as analyte, 30 °C, 2:1 model.
Protocol: After generation of the reference anti-BTN2A antibodies in chimeric IgG1 format, affinities for the 2 different isoforms of this target (BTN2A1 and BTN2A2) were evaluated and competition assays were performed to determine whether these mAbs recognized the same epitope region of BTN2A1. Affinity and binning experiments were performed on an Octet Red96 platform (Fortebio/PALL), system based on Bio-layer interferometry (BLI) technology. For affinity experiments, recombinant human (rh)BTN2A1-Fc (GTP) was biotinylated using EZ-Link™ NHS-PEG4 Biotinylation Kit according to manufacturer's instructions, and biotinylated rhBTN2A2-Fc was purchased from R&D Systems. […] For BTN2A2 affinity assays, chimeric anti-BTN2A antibodies were loaded into FAB2G sensors (anti human CH1; Fortebio) as described above, and biotinylated rhBTN2A2-Fc was used as analyte. In both cases, analytes remained in solution and their working concentrations were diluted in Kinetic Buffer 10× (ForteBio). […] All runs (including loading, equilibration, association/dipping of sensors into analyte, dissociation and regeneration) were performed at 30° C. with shaking 1000 rpm. Analysis was performed using a 1:1 or 2:1 Langmuir model (for BTN2A1 or BTN2A2, respectively) calculated by Octet software, which allowed a better fitting calculation.

For orientation: EC50 means the concentration at which the effect is half-maximal. The Kd is the equilibrium constant for the complex coming apart.

B1: purified anti-BTN2A1 107G3 mAb (mouse hybridoma antibody) (antibody, V domains shown)
VH: QVQLKESGPGLVAPSQSLSITCTVSGFSLTNYVISWVRQPPGKGLEWLGVIWTGGDTNYNSALKSRLSISKDNSKSQVFLKMNSLQTGDTARYYCARGGQLGLRGYWGQGTLVTVSA
VL: DIVLTQSPASLAVSLGQRATISCRASKTVSSSGYSYMHWYQQKPGQPPKLLIYLASNLESGVPARFSGSGSGTDFTLNIHPVEEEDAATYYCQHSRDLPYAFGGGTKLEIK
notes: Mouse antibody purified from hybridoma; mouse IgG1 served as its isotype control; also called anti-BTN2A1 mAb 107G3
Regarding B1, in experiment [1], a half-maximal response (EC50) required 0.32 µg/mL.

B2: chimeric anti-BTN2A mAb2 (107G3), chimeric IgG1 format (antibody, V domains shown)
VH: QVQLKESGPGLVAPSQSLSITCTVSGFSLTNYVISWVRQPPGKGLEWLGVIWTGGDTNYNSALKSRLSISKDNSKSQVFLKMNSLQTGDTARYYCARGGQLGLRGYWGQGTLVTVSA
VL: DIVLTQSPASLAVSLGQRATISCRASKTVSSSGYSYMHWYQQKPGQPPKLLIYLASNLESGVPARFSGSGSGTDFTLNIHPVEEEDAATYYCQHSRDLPYAFGGGTKLEIK
notes: Murine VH and VK cloned into heavy and light chain expression vectors, chimeric IgG1 (isotype control human IgG1), made in HEK-293 cells; also called anti-BTN2A 107G3
Turning to B2, in experiment [2], the binding result was “no binding (tested: 200 nM)”. For the same molecule, in experiment [3], the EC50 is 0.56 nM. In addition, the Kd in experiment [4] was found to be 0.41 nM.

B3: chimeric anti-BTN2A mAb1 (101G5), chimeric IgG1 format (antibody, V domains shown)
VH: EVQLQQSGPELVKPGASVKISCKASGYSFTVYYMLWVKQSPEKSLEWIGEINPSTGGTTYNQKFKAKATLTVDKSSSTAYMQLKSLTSEDSAVYYCARGPSFYALDYWGQGTSVTVSS
VL: EIVLTQSPTTMAASPGEKITITCSATSSISSNYLHWYRHKPGFSPKLLIYRTSNLASGVPGRFSGSGSGTSYSLTIGTMEAEDVATYYCQQGSSIPRTFGGGTKLEIK
notes: Chimeric IgG1 (isotype control human IgG1), made in HEK-293 cells; also called anti-BTN2A 101G5
Take B3: the EC50 in experiment [3] came to 0.82 nM. The figures for the Kd in experiment [5] and in experiment [4] were 4.4 nM and 0.041 nM, respectively.
